The target of data set [1] is Max b/HLH/Z domain (amino acids 22-113) (UniProt P61244). As to the kind of experiment: fluorescence polarisation. (In general: Fluorescence polarisation rises when a labelled molecule tumbles more slowly, as on binding a larger partner.)
For data set [2] the target is unchanged. Description: fluorescence polarisation. This is another data set of the same source.
Data set [3] has the same target. Description: fluorescence polarisation. The source holds these as a separate data set.
The target is the same in data set [4]. Description: fluorescence polarisation. The source holds these as a separate data set.
In data set [5] the target is T1, Mad1;Max b/HLH/Z (;, UniProt Q05195;P61244 1-221;22-113, |). Description: stopped-flow fluorescence anisotropy.
For data set [6], the target named is T2, Max b/HLH/Z (UniProt P61244 22-113). Description: stopped-flow fluorescence anisotropy.
For data set [7], the target named is T3, c-Myc b/HLH/Z;Max b/HLH/Z (;, UniProt P01106-1;P61244 347-439;22-113, |). As to the kind of experiment: stopped-flow fluorescence anisotropy.
The target in data set [8] is Max b/HLH/Z monomer (UniProt P61244 22-113). As to the kind of experiment: stopped-flow fluorescence anisotropy.
The target of data set [9] is T1, Mad1;Max b/HLH/Z. As to the kind of experiment: stopped-flow fluorescence anisotropy. The source holds these as a separate data set.
Data set [10] has as its target T2, Max b/HLH/Z. Description: stopped-flow fluorescence anisotropy. This is another data set of the same source.
For data set [11], the target named is T3, c-Myc b/HLH/Z;Max b/HLH/Z. As to the kind of experiment: stopped-flow fluorescence anisotropy. The source holds these as a separate data set.

Read-outs that look alike come from different tables or passages of the source.

Sequence of Max b/HLH/Z domain (amino acids 22-113) (P61244 22-113): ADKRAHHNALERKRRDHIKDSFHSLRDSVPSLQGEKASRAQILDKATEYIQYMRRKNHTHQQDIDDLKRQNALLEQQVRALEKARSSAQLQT
T2 sequence (P61244 22-113): as above
T1 sequence (Q05195 whole entry, chain 1 of 2): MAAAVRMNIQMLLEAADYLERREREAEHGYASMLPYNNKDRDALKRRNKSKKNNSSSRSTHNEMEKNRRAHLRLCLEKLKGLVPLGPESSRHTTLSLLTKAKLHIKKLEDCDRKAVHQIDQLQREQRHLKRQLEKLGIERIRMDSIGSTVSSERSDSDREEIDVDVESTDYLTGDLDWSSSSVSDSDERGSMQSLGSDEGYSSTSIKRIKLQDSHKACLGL
T1 sequence (P61244 22-113, chain 2 of 2): as the sequence (P61244 22-113) above
T3 sequence (P01106 362-454, chain 1 of 2): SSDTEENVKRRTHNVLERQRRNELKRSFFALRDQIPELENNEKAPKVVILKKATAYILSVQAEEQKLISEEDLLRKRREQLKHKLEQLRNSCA
T3 sequence (P61244 22-113, chain 2 of 2): as the sequence (P61244 22-113) above
Sequence of Max b/HLH/Z monomer (P61244 22-113): as above

For “c-Myc b/HLH/Z domain (amino acids 347-439) (domain or fragment)”, the kobs (association rate constant) is 90 s⁻¹ in [1], 67 s⁻¹ in [2], 109 s⁻¹ in data set [3] and 118 s⁻¹ in data set [4]. In addition, the association rate constant with the Max·DNA complex in data set [4] came out at 126 s⁻¹. Moreover, in [4], the k2 (forward rate constant of the second step, from the intercept) amounted to 91 s⁻¹.

B1: MLP E-box 16-mer, FITC-labelled (dsDNA)
DNA 1: TAGGCCACGTGACCGG
DNA 2: CCGGTCACGTGGCCTA
As to B1, the binding result in data set [5], in data set [6] and in data set [7] was “binds” throughout.

B2: MLP E-box 16-mer, label not stated (dsDNA)
DNA 1: TAGGCCACGTGACCGG
DNA 2: CCGGTCACGTGGCCTA
In the case of B2, the binding result in [8], in data set [9], in [10] and in [11] was “binds” in each case.

The values above are taken from paper PMC2852888.
